Drawing on paper PMC5741291 (2017), this text covers Kd for 1 molecule.

The target in this assay is Actin (F-actin, skeletal muscle) (Oryctolagus cuniculus, UniProt P68135). Kind of assay: stopped-flow light scattering.

B1: Myosin IIIA motor domain (p-huM3AMD) 311-1058 (protein)
chain: MGGTEKARRERIHTKKGNFNRPLISNLKDVDDLATLEILDENTVSEQLEKCYSRDQIYVYVGDILIALNPFQSLGLYSTKHSKLYIGSKRTASPPHIFAMADLGYQSMITYNSDQCIVISGESGAGKTENAHLLVQQLTVLGKANNRTLQEKILQVNNLVEAFGNACTIINDNSSRFGKYLEMKFTSSGAVVGAQISEYLLEKSRVIHQAIGEKNFHIFYYIYAGLAEKKKLAHYKLPENKPPRYLQNDHLRTVQDIMNNSFYKSQYELIEQCFKVIGFTMEQLGSIYSILAAILNVGNIEFSSVATEHQIDKSHISNHTALENCASLLCIRADELQEALTSHCVVTRGETIIRPNTVEKATDVRDAMAKTLYGRLFSWIVNCINSLLKHDSSPSGNGDELSIGILDIFGFENFKKNSFEQLCINIANEQIQYYYNQHVFAWEQNEYLNEDVDARVIEYEDNWPLLDMFLQKPMGLLSLLDEESRFPKATDQTLVEKFEGNLKSQYFWRPKRMELSFGIHHYAGKVLYNASGFLAKNRDTLPTDIVLLLRSSDNSVIRQLVNHPLTKTGNLPHSKTKNVINYQMRTSEKLINLAKGDTGEATRHARETTNMKTQTVASYFRYSLMDLLSKMVVGQPHFVRCIKPNSERQARKYDKEKVLLQLRYTGILETARIRRLGFSHRILFANFIKRYYLLCYKSSEEPRMSPDTCATILEKAGLDNWALGKTKVFLKYYHVEQLNLMRKEAIDK
modifications: phosphorylated by myosin IIIA kinase domain, MgADP
As a reminder, the Kd is the equilibrium constant for the complex coming apart. For B1, the Kd was found to be 1070 nM.
